Patent US6521594
Non-standard residues stand in square brackets, D forms with d. No end group written: not given here. *: point of attachment. Pmc = Cc1c(C)c(S(=O)(=O)*)c(C)c2c1OC(C)(C)CC2; 2Nal = N[C@@H](Cc1ccc2ccccc2c1)C(=O)O; Pen = CC(C)(S)[C@H](N)C(=O)O

Legend:
αvβ5 = test: ELISA
[1] = biological target: Platelet glycoprotein IIb/IIIa (human) (UniProt P08514); test: ELISA
[2] = biological target: Vitronectin receptor (human) (UniProt P06756); test: competition, ELISA or liposome assay, vitronectin coated
[3] = biological target: Platelet glycoprotein IIb/IIIa (human) (UniProt P08514); test: cell-based or functional assay

With (Mpr)NPRGD(Y-OMe)RC-NH2 the IC50 (αvβ5) was 3 µM.
Substance Ac(dPen)IPRGD(O-Me-Tyr)RC-NH2 has an IC50 [1] of 0.002 µM.
Work on Ac-(Pmc)NPRGD(Y-OMe)RC-NH2 yielded an IC50 (αvβ5) of 2.34 µM.
Ac-CNPRGD(Y-OMe)LC-NH2 gave an IC50 (αvβ5) of 7.14 µM.
For “G[Pen]GRGDRPCR (cysteine pairing not given here)”, the IC50 [2] was 0.01 µM.
Work on R2(Pen)GRGDTPCA (peptide) yielded an IC50, ADP-Stimulated Aggregation [3] of 8.2 µM and an IC50, Thrombin Stimulated Aggregation [3] of 2.7 µM.
R(Pmc)G(DY)RGD(Y-OMe)RCR gave an IC50 (αvβ5) of 10 µM.
Substance “R(Pmc)GHRGD(O-Me-Tyr)RCR (Table I, row r54) (peptide)” has an IC50, ADP-Stimulated Aggregation [3] of 0.44 µM.
R(Pmc)GHRGD(p-Cl-F)RCR was tested, and the IC50 (αvβ5) was 15.3 µM.
For R(Pmc)GHRGD[2Nal]RCR, the IC50 (αvβ5) was 10 µM.
R(Pmc)GYRGD(Y-OMe)RCR was tested, and the IC50 (αvβ5) was 8.8 µM.
Substance “analogue 18 (Asp for Gly at position -2 of R(Pmc)GHRGD(Y-OMe)RCR) (peptide)” has a fold decrease in potency relative to analogue 11 [3] of 4 fold.
